Experimental data from US20110052597A1 (CSL, published 2011).

T1: N-terminal FLAG-tagged fusion protein including most of the extracellular region of human IL-13Rα1 (human, UniProt P78552 29-343)
T1 construct: also called hIL-13Rα1.ECR; Human IL-13Rα1.ECR
T1 sequence: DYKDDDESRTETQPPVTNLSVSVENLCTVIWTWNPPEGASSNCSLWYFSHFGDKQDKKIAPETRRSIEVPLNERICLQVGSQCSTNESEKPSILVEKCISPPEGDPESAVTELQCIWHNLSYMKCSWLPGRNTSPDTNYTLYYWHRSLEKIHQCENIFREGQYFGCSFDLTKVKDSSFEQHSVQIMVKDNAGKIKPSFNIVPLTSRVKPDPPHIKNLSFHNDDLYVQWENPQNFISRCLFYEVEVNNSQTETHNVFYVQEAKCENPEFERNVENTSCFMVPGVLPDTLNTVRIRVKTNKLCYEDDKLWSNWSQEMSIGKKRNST

T2: cynomolgus IL-13Rα1.ECR, N-terminal FLAG-tagged fusion protein (cynomolgus macaque, UniProt P78552 27-343 (human entry))
T2 construct: also called cyIL-13Rα1; Cynomolgus IL13Rα.ECR; not shown: N-terminal FLAG tag from the pEFBOS-S-FLAG vector
T2 chain: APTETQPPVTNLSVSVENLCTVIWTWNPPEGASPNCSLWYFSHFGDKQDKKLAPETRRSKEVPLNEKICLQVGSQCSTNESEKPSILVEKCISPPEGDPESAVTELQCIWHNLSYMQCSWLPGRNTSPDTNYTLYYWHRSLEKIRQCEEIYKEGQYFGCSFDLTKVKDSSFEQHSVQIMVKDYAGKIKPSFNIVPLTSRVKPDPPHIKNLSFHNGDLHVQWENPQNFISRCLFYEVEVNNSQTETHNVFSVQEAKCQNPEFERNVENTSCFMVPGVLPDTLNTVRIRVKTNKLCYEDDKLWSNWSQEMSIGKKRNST


What was measured:
[1] = biological target: T1, N-terminal FLAG-tagged fusion protein …; experiment: BIACORE, hIL-13Rα1.ECR immobilized on CM5 chip, mAb in solution, bivalent model
Excerpt: BIACORE™-Based Studies. […] Ethanolamine (1.0 M), pH 8.0 was used to quench residual active esters post hIL-13Rα1.ECR immobilization.
Sensorgrams generated were fitted to a bivalent ligand binding model to simultaneously derive association (kₐ) and dissociation (kd) rates and used to determine binding affinity (KD, Biaevaluation software, BIACORE™, Sweden).

[2] = biological target: T1, N-terminal FLAG-tagged fusion protein …; experiment: BIACORE, receptor ECR immobilized on CM5 chip, mAb in solution
[3] = biological target: T2, cynomolgus IL-13Rα1.ECR, N-terminal …; experiment: as above

| Binder | Kd [1] | Kd [2] | Kd [3] |
| --- | --- | --- | --- |
| human monoclonal antibody 15F4 (antibody, V domains shown, also called mAb 15F4; hybridoma ATCC PTA-6935) VH: QVQLVESGGGVVQPGRSLRLSCAASGFTFSSYGMHWVRQAPGKGLEWVAVIWDDGSNKYYEVSVKGRFTISRDNSKNTLYLQMNSLRVEDTAVYYCARDSNNWYVGVFDIWGQGTMVTVSS VL: not shown | ~2.17 nM | – | – |
| monoclonal antibody 8B4 (antibody, V domains shown) VH: EVQVLESGGGLVQPGGSLRLSCAASGFTFSNYAMTWVRQAPGKGLEWVSTISGRGYSIYYADSVKGRFTISRDNSKNTVYLQMNSLRAEDTAVYYCAKEEGHWYFDVWGRGTLVTVSS VL: EIVLTQSPDFQSVTPKEKVTITCRASQSIGSSLHWYQQKPDQSPKLLIKYASQSFSGVPSRFSGSGSGTDFTLTINSLEAEDAAAYYCHQSSSLPYTFGQGTKLEIK | – | 4.6 nM | 0.59 nM |
